Laboratory results as given in paper PMC7544431 (Nature, 2020).

B1: human MCU (subunit of the purified uniplex) (natural protein, UniProt Q8NE86 51-351, looked up)
chain: VHQRIASWQNLGAVYCSTVVPSDDVTVVYQNGLPVISVRLPSRRERCQFTLKPISDSVGVFLRQLQEEDRGIDRVAIYSPDGVRVAASTGIDLLLLDDFKLVINDLTYHVRPPKRDLLSHENAATLNDVKTLVQQLYTTLCIEQHQLNKERELIERLEDLKEQLAPLEKVRIEISRKAEKRTTLVLWGGLAYMATQFGILARLTWWEYSWDIMEPVTYFITYGSAMAMYAYFVMTRQEYVYPEARDRQYLLFFHKGAKKSRFDLEKYNQLKDAIAQAEMDLKRLRDPLQVHLPLRQIGEKD
B2: human MICU2 (subunit of the purified uniplex) (natural protein, UniProt Q8IYU8 23-434, looked up)
chain: AVSRQAVRSPGPLAAAVAGAALAGAGAAWHHSRVSVAARDGSFTVSAQKNVEHGIIYIGKPSLRKQRFMQFSSLEHEGEYYMTPRDFLFSVMFEQMERKTSVKKLTKKDIEDTLSGIQTAGCGSTFFRDLGDKGLISYTEYLFLLTILTKPHSGFHVAFKMLDTDGNEMIEKREFFKLQKIISKQDDLMTVKTNETGYQEAIVKEPEINTTLQMRFFGKRGQRKLHYKEFRRFMENLQTEIQEMEFLQFSKGLSFMRKEDFAEWLLFFTNTENKDIYWKNVREKLSAGESISLDEFKSFCHFTTHLEDFAIAMQMFSLAHRPVRLAEFKRAVKVATGQELSNNILDTVFKIFDLDGDECLSHEEFLGVLKNRMHRGLWVPQHQSIQEYWKCVKKESIKGVKEVWKQAGKGLF
modifications: disulfide to MICU1 (C413 of MICU2 and C463 of MICU1 in range)

Assays:
cryo-EM structure [1] = biological target: the molecule itself; experiment: cryo-EM structure
cryo-EM structure [2] = biological target: the molecule itself; experiment: cryo-EM structure; remark: listed apart in the source

| Protein | stoichiometry N (cryo-EM structure [1]) | binding result (cryo-EM structure [2]) |
| --- | --- | --- |
| B1 | 4 | – |
| B2 | – | binds |
